B1: Heavy metal-associated isoprenylated plant protein 26 (Arabidopsis thaliana (Mouse-ear cress)), Q9SZN7 (parent)
chain: MGVLDHVSEMFDCSHGHKIKKRKQLQTVEIKVKMDCEGCERKVRRSVEGMKGVSSVTLEPKAHKVTVVGYVDPNKVVARMSHRTGKKVELWPYVPYDVVAHPYAAGVYDKKAPSGYVRRVDDPGVSQLARASSTEVRYTTAFSDENPAACVVM
partner: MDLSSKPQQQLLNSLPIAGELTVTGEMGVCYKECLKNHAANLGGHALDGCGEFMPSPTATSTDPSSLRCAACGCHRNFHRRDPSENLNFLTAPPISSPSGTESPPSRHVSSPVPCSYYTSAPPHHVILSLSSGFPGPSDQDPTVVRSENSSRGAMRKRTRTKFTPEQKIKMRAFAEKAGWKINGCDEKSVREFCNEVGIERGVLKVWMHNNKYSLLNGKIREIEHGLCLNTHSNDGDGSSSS

Variants of: B1
Details: with zhd11_arath ZHD11, Q9SEZ1

effect of a mutation on the interaction	Variant
disrupting interaction	C36G;C39G

Source: IntAct's records for PubMed 18974936
